Laboratory results: US20140087995A1 (published 2014)
Numbered stars: 1 amine (or outer) side, 2 acyl side, 3 side chain; on linkers, the order of the positions; unused ones are H or OH. Bridge positions count the residues as written; N and C are the ends. Side chains are listed from the residue outwards. Ends that are not written are not given here. * marks the point of attachment. C20 diacid = O=C(O)CCCCCCCCCCCCCCCCCCC(=O)*; γGlu = O=C(O)[C@H](CCC(=O)[*:2])N[*:1]

T1: human calcitonin receptor (human, UniProt P30988 25-474)
T1 construct: whole, on cells; Assay used cell membranes, not intact cells; also called hCTR; hCT
T1 sequence (looked up): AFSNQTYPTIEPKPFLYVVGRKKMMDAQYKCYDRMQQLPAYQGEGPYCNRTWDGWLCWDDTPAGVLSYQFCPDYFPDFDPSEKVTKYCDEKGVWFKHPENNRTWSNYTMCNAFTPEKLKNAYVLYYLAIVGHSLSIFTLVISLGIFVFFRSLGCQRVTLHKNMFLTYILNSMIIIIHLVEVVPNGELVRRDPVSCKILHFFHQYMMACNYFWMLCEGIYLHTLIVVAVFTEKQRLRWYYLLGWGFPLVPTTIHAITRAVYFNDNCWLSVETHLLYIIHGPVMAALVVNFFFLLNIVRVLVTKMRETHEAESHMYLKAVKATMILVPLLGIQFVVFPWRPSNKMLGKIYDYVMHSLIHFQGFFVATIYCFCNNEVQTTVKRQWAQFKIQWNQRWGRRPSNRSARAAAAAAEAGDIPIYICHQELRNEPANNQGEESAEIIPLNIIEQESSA

T2: human amylin receptor (amylin 3(a) receptor: human calcitonin receptor with RAMP-3) (human, UniProt P30988 25-474; O60896 24-148)
T2 construct: whole, on cells; Assay used cell membranes of the Amylin 3(a)/CRE-luc BHK cells, not intact cells; also called hAmylin-R; hAmylinR
T2 sequence (looked up) 1: T1 sequence (looked up)
T2 sequence (looked up) 2: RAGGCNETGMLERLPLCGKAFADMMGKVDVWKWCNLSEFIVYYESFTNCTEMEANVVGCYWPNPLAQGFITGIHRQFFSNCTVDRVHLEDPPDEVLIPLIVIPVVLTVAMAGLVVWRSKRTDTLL

B1: N^ε1-[(4S)-4-carboxy-4-(19-carboxynonadecanoylamino)butanoyl]-[Glu14,Arg17,Pro21,Pro27,Pro34,Arg35]-h-amylin (peptide)
peptide: K([γGlu-C20 diacid])CNTATCATQRLAEFLRHSSPNFGAIPSSTNVGPRTY-NH2
modifications: disulfide 2-7; N-terminus assumed
SMILES: CC[C@H](C)[C@H](NC(=O)[C@H](C)NC(=O)CNC(=O)[C@H](Cc1ccccc1)NC(=O)[C@H](CC(N)=O)NC(=O)[C@@H]1CCCN1C(=O)[C@H](CO)NC(=O)[C@H](CO)NC(=O)[C@H](Cc1c[nH]cn1)NC(=O)[C@H](CCCNC(=N)N)NC(=O)[C@H](CC(C)C)NC(=O)[C@H](Cc1ccccc1)NC(=O)[C@H](CCC(=O)O)NC(=O)[C@H](C)NC(=O)[C@H](CC(C)C)NC(=O)[C@H](CCCNC(=N)N)NC(=O)[C@H](CCC(N)=O)NC(=O)[C@@H](NC(=O)[C@H](C)NC(=O)[C@@H]1CSSC[C@H](NC(=O)[C@@H](N)CCCCNC(=O)CC[C@H](NC(=O)CCCCCCCCCCCCCCCCCCC(=O)O)C(=O)O)C(=O)N[C@@H](CC(N)=O)C(=O)N[C@@H]([C@@H](C)O)C(=O)N[C@@H](C)C(=O)N[C@@H]([C@@H](C)O)C(=O)N1)[C@@H](C)O)C(=O)N1CCC[C@H]1C(=O)N[C@@H](CO)C(=O)N[C@@H](CO)C(=O)N[C@H](C(=O)N[C@@H](CC(N)=O)C(=O)N[C@H](C(=O)NCC(=O)N1CCC[C@H]1C(=O)N[C@@H](CCCNC(=N)N)C(=O)N[C@H](C(=O)N[C@@H](Cc1ccc(O)cc1)C(N)=O)[C@@H](C)O)C(C)C)[C@@H](C)O
B2: N^ε1-[(4S)-4-carboxy-4-(19-carboxynonadecanoylamino)butanoyl]-[Glu14,Arg17,Pro21,Pro27,Pro34,His35]-h-amylin (peptide)
peptide: K([γGlu-C20 diacid])CNTATCATQRLAEFLRHSSPNFGAIPSSTNVGPHTY-NH2
modifications: disulfide 2-7
B3: N^ε1-[(4S)-4-carboxy-4-(19-carboxynonadecanoylamino)butanoyl]-[Glu14,Arg17,Pro21,Pro27,Pro34,Glu35]-h-amylin (peptide)
peptide: K([γGlu-C20 diacid])CNTATCATQRLAEFLRHSSPNFGAIPSSTNVGPETY-NH2
modifications: disulfide 2-7; N-terminus assumed
SMILES: CC[C@H](C)[C@H](NC(=O)[C@H](C)NC(=O)CNC(=O)[C@H](Cc1ccccc1)NC(=O)[C@H](CC(N)=O)NC(=O)[C@@H]1CCCN1C(=O)[C@H](CO)NC(=O)[C@H](CO)NC(=O)[C@H](Cc1c[nH]cn1)NC(=O)[C@H](CCCNC(=N)N)NC(=O)[C@H](CC(C)C)NC(=O)[C@H](Cc1ccccc1)NC(=O)[C@H](CCC(=O)O)NC(=O)[C@H](C)NC(=O)[C@H](CC(C)C)NC(=O)[C@H](CCCNC(=N)N)NC(=O)[C@H](CCC(N)=O)NC(=O)[C@@H](NC(=O)[C@H](C)NC(=O)[C@@H]1CSSC[C@H](NC(=O)[C@@H](N)CCCCNC(=O)CC[C@H](NC(=O)CCCCCCCCCCCCCCCCCCC(=O)O)C(=O)O)C(=O)N[C@@H](CC(N)=O)C(=O)N[C@@H]([C@@H](C)O)C(=O)N[C@@H](C)C(=O)N[C@@H]([C@@H](C)O)C(=O)N1)[C@@H](C)O)C(=O)N1CCC[C@H]1C(=O)N[C@@H](CO)C(=O)N[C@@H](CO)C(=O)N[C@H](C(=O)N[C@@H](CC(N)=O)C(=O)N[C@H](C(=O)NCC(=O)N1CCC[C@H]1C(=O)N[C@@H](CCC(=O)O)C(=O)N[C@H](C(=O)N[C@@H](Cc1ccc(O)cc1)C(N)=O)[C@@H](C)O)C(C)C)[C@@H](C)O
B4: N^ε1-[(4S)-4-carboxy-4-(19-carboxynonadecanoylamino)butanoyl]-[His14,Arg17,Pro21,Pro27,Arg34]-h-amylin (peptide)
peptide: K([γGlu-C20 diacid])CNTATCATQRLAHFLRHSSPNFGAIPSSTNVGRNTY-NH2
modifications: disulfide 2-7; N-terminus assumed
SMILES: CC[C@H](C)[C@H](NC(=O)[C@H](C)NC(=O)CNC(=O)[C@H](Cc1ccccc1)NC(=O)[C@H](CC(N)=O)NC(=O)[C@@H]1CCCN1C(=O)[C@H](CO)NC(=O)[C@H](CO)NC(=O)[C@H](Cc1c[nH]cn1)NC(=O)[C@H](CCCNC(=N)N)NC(=O)[C@H](CC(C)C)NC(=O)[C@H](Cc1ccccc1)NC(=O)[C@H](Cc1c[nH]cn1)NC(=O)[C@H](C)NC(=O)[C@H](CC(C)C)NC(=O)[C@H](CCCNC(=N)N)NC(=O)[C@H](CCC(N)=O)NC(=O)[C@@H](NC(=O)[C@H](C)NC(=O)[C@@H]1CSSC[C@H](NC(=O)[C@@H](N)CCCCNC(=O)CC[C@H](NC(=O)CCCCCCCCCCCCCCCCCCC(=O)O)C(=O)O)C(=O)N[C@@H](CC(N)=O)C(=O)N[C@@H]([C@@H](C)O)C(=O)N[C@@H](C)C(=O)N[C@@H]([C@@H](C)O)C(=O)N1)[C@@H](C)O)C(=O)N1CCC[C@H]1C(=O)N[C@@H](CO)C(=O)N[C@@H](CO)C(=O)N[C@H](C(=O)N[C@@H](CC(N)=O)C(=O)N[C@H](C(=O)NCC(=O)N[C@@H](CCCNC(=N)N)C(=O)N[C@@H](CC(N)=O)C(=O)N[C@H](C(=O)N[C@@H](Cc1ccc(O)cc1)C(N)=O)[C@@H](C)O)C(C)C)[C@@H](C)O
notes: also called compound 85
B5: N^ε1-[(4S)-4-carboxy-4-(19-carboxynonadecanoylamino)butanoyl]-[His14,Arg17,Pro21,Pro27,His34]-h-amylin (peptide)
peptide: K([γGlu-C20 diacid])CNTATCATQRLAHFLRHSSPNFGAIPSSTNVGHNTY-NH2
modifications: disulfide 2-7; N-terminus assumed
SMILES: CC[C@H](C)[C@H](NC(=O)[C@H](C)NC(=O)CNC(=O)[C@H](Cc1ccccc1)NC(=O)[C@H](CC(N)=O)NC(=O)[C@@H]1CCCN1C(=O)[C@H](CO)NC(=O)[C@H](CO)NC(=O)[C@H](Cc1c[nH]cn1)NC(=O)[C@H](CCCNC(=N)N)NC(=O)[C@H](CC(C)C)NC(=O)[C@H](Cc1ccccc1)NC(=O)[C@H](Cc1c[nH]cn1)NC(=O)[C@H](C)NC(=O)[C@H](CC(C)C)NC(=O)[C@H](CCCNC(=N)N)NC(=O)[C@H](CCC(N)=O)NC(=O)[C@@H](NC(=O)[C@H](C)NC(=O)[C@@H]1CSSC[C@H](NC(=O)[C@@H](N)CCCCNC(=O)CC[C@H](NC(=O)CCCCCCCCCCCCCCCCCCC(=O)O)C(=O)O)C(=O)N[C@@H](CC(N)=O)C(=O)N[C@@H]([C@@H](C)O)C(=O)N[C@@H](C)C(=O)N[C@@H]([C@@H](C)O)C(=O)N1)[C@@H](C)O)C(=O)N1CCC[C@H]1C(=O)N[C@@H](CO)C(=O)N[C@@H](CO)C(=O)N[C@H](C(=O)N[C@@H](CC(N)=O)C(=O)N[C@H](C(=O)NCC(=O)N[C@@H](Cc1c[nH]cn1)C(=O)N[C@@H](CC(N)=O)C(=O)N[C@H](C(=O)N[C@@H](Cc1ccc(O)cc1)C(N)=O)[C@@H](C)O)C(C)C)[C@@H](C)O
notes: also called compound 81
B6: N^ε1-[(4S)-4-carboxy-4-(19-carboxynonadecanoylamino)butanoyl]-[His14,Arg17,Pro21,Pro27,Pro31,Pro34]-h-amylin (peptide)
peptide: K([γGlu-C20 diacid])CNTATCATQRLAHFLRHSSPNFGAIPSSTPVGPNTY-NH2
modifications: disulfide 2-7; N-terminus assumed
SMILES: CC[C@H](C)[C@H](NC(=O)[C@H](C)NC(=O)CNC(=O)[C@H](Cc1ccccc1)NC(=O)[C@H](CC(N)=O)NC(=O)[C@@H]1CCCN1C(=O)[C@H](CO)NC(=O)[C@H](CO)NC(=O)[C@H](Cc1c[nH]cn1)NC(=O)[C@H](CCCNC(=N)N)NC(=O)[C@H](CC(C)C)NC(=O)[C@H](Cc1ccccc1)NC(=O)[C@H](Cc1c[nH]cn1)NC(=O)[C@H](C)NC(=O)[C@H](CC(C)C)NC(=O)[C@H](CCCNC(=N)N)NC(=O)[C@H](CCC(N)=O)NC(=O)[C@@H](NC(=O)[C@H](C)NC(=O)[C@@H]1CSSC[C@H](NC(=O)[C@@H](N)CCCCNC(=O)CC[C@H](NC(=O)CCCCCCCCCCCCCCCCCCC(=O)O)C(=O)O)C(=O)N[C@@H](CC(N)=O)C(=O)N[C@@H]([C@@H](C)O)C(=O)N[C@@H](C)C(=O)N[C@@H]([C@@H](C)O)C(=O)N1)[C@@H](C)O)C(=O)N1CCC[C@H]1C(=O)N[C@@H](CO)C(=O)N[C@@H](CO)C(=O)N[C@H](C(=O)N1CCC[C@H]1C(=O)N[C@H](C(=O)NCC(=O)N1CCC[C@H]1C(=O)N[C@@H](CC(N)=O)C(=O)N[C@H](C(=O)N[C@@H](Cc1ccc(O)cc1)C(N)=O)[C@@H](C)O)C(C)C)[C@@H](C)O

Biological target: T1, human calcitonin receptor
Assay: SPA competition with 125I-calcitonin on membranes of BHK cells with human calcitonin receptor (Assay VII)
Summary of the method: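 BHK hCTR membranes 35 ng/μL + SPA beads 0.05 mg/well; buffer 50 mM Hepes pH 7.4, 1 mM CaCl2, 5 mM MgCl₂, 0.1% OA, 0.02% Tween20. 120 min, 25° C., shaking. Scintillation count; IC50 by one-site binding competition.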

IC50	Binder
6.3 nM	B1
3.8 nM	B2
1.86 nM	B3
80.4 nM	B4
23.6 nM	B5
2.04 nM	B6

Biological target: T1, human calcitonin receptor
Assay: ratio IC50 hCTR / IC50 hAmylin-R (reference: human amylin receptor), SPA competition assays
Summary of the method: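 Membranes (35 ng/μL final) + SPA beads, 50 mM Hepes pH 7.4 buffer with 1 mM CaCl2, 5 mM MgCl₂, 0.1% OA, 0.02% Tween20; 120 min, 25° C, shaking; centrifuged, counted; IC₅₀ by one-site binding competition.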

Ratio hCT/hAmylin binding	Binder
38.6	B1
21.2	B2
13.3	B3
91.8	B4
87.2	B5
24.8	B6

Biological target: T2, human amylin receptor (amylin 3(a) …)
Assay: SPA competition with 125I-rat amylin on membranes of BHK cells with human calcitonin receptor and RAMP-3 (Assay V)
Summary of the method: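 SPA beads + BHK amylin 3(a)/CRE-luc membranes, 35 ng/μL final; buffer 50 mM Hepes pH 7.4, 1 mM CaCl2, 5 mM MgCl₂, 0.1% OA, 0.02% Tween20. 120 min, 25° C, shaken; scintillation count. IC₅₀ by one-site binding competition fit, taken as receptor affinity.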

IC50	Binder
0.163 nM	B1
0.179 nM	B2
0.14 nM	B3
0.876 nM	B4
0.271 nM	B5
0.082 nM	B6
